Among the data in paper PMC4608796 are Kd values, retold here.

Series [1] deals with T1, CodY-His5 (Bacillus subtilis) (UniProt P39779).
T1 sequence: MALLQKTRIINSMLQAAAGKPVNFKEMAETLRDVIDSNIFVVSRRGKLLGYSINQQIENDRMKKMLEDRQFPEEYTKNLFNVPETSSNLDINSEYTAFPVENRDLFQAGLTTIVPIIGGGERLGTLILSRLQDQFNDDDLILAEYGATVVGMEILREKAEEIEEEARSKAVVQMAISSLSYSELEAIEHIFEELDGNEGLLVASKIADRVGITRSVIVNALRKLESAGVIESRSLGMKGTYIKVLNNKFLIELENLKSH
Nature of the series: EMSA. Conditions: CodY assays with 10 mM ILV (plus 2 mM GTP in Fig 2 footprints); Kd = protein monomer concentration shifting 50% of DNA; buffer, salt, pH and temperature not ….

Series [2] deals with T2, His6-ScoC (Bacillus subtilis) (UniProt P11065).
T2 sequence: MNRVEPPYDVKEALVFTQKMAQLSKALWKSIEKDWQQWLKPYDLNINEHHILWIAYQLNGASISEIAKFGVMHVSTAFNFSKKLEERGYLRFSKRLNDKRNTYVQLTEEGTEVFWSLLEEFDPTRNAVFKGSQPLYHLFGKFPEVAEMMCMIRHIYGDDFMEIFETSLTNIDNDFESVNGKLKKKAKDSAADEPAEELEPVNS
Nature of the series: EMSA. Conditions: CodY assays with 10 mM ILV (plus 2 mM GTP in Fig 2 footprints); Kd = protein monomer concentration shifting 50% of DNA; buffer, salt, pH and temperature not …. Background: In EMSA bound probe runs differently from free probe, usually more slowly.

Usually Kd stands for the equilibrium constant for the complex coming apart.

Take “TCGTTTCGTCATATTATCTGACAATTAATTGACAGAATATTTTAACATAATTATTAGGAGGATT (double strand) [braB64]”: the Kd in series [1] amounted to 5 nM; in series [2], 150 nM.

Regarding braB144p+ (gel shift), the Kd in series [1] amounted to 4 nM.

Regarding braB156p+ (gel shift), in series [1], the Kd was 75 nM.

For the substance braB242p+, the Kd in series [1] was 3 nM.
